One test deals with T1, Peptide-1 (human, phosphothreonine 212, phosphoserine 214, phosphothreonine 217 (tau 2N4R numbering); short chain biotin (SCBiot) and dPEG4 at the N-terminus; amide at the C-terminus).
T1 construct: also called tau peptide phosphorylated at T212/S214/T217
As to the kind of experiment: SPR ProteOn, peptide captured, Fab as analyte; Peptide-1, phosphorylated at 212/214/217. As for the experimental part: (§1) The binding affinity of PT3 Fab towards each of the fourteen tau phosphopeptides shown in Table 6 was assessed by surface plasmon resonance (SPR) using a Bio-Rad ProteOn XPR36. Peptides were synthesized by standard chemical methods (New England Peptide) with short-chain biotin and a PEG4 moiety at the N-terminus. Biotinylated peptide was captured on a neutravidin-coated NLC biosensor chip and PT3 Fab was flowed over the surface to measure kinetic parameters.
(§2) All experiments were performed at 25° C. using phosphate buffered saline, pH 7.4, 0.005% Tween 20 (PBST) as both running buffer and sample dilution buffer. Prior to running samples, the NLC chip was conditioned by running PBST over the chip surface for 1 h. Approximately 5-10 RU of peptide was captured on the chip surface by diluting peptide to 10 ng/mL in PBST and injecting over the flow channels at 30 μL/min for 100 s. Serial dilutions of PT3 Fab (1.1-90 nM) were analyzed and, with the exception of Peptide-8, each concentration was measured in duplicate. After capture of peptides, the antibody titration was injected at 60 μL/min for 3 minutes (association phase), followed by 300 s of buffer only (dissociation phase).
(§3) The data were double referenced by subtraction of the interspot response and the curves generated by the buffer-only injection. […] The data were analyzed using a simple Langmuir 1:1 binding model.

For test [1], the target named is T2, Peptide-7 (human, phosphothreonine 212, phosphoserine 214 (tau 2N4R numbering); SCBiot and dPEG4 at the N-terminus; amide at the C-terminus). As to the kind of experiment: SPR ProteOn, peptide captured, Fab as analyte; Peptide-7, phosphorylated at 212/214. As for the experimental part: as §1, §2, §3
T2 sequence (peptide, as listed by the source): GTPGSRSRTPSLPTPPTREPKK
Test [2] has as its target T2, Peptide-7. As to the kind of experiment: SPR ProteOn, peptide captured, Fab as analyte; range of n=2; lower end of n=2 range. The method, then: as §1, §2
(§4) The data were double referenced by subtraction of the interspot response and the curves generated by the buffer-only injection. The chip surface was regenerated using a single injection of 0.85% phosphoric acid at 30 μL/min for 100 s contact time, followed by four injections of running buffer before the next antibody titration injection. The data processing and kinetic analysis were done using the instrument software. The data were analyzed using a simple Langmuir 1:1 binding model.

In test [3] the target is T3, tau phospho-peptide of the direct ELISA of Example 11.
T3 construct: also called pT217 peptide; pT212/pT217 peptide
As to the kind of experiment: direct ELISA, peptide coated. The procedure, abridged: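 Tau phospho-peptide coated directly on plates at 10 ng/mL overnight, then incubated with antibodies. Bound Fab detected with HRPO-labelled anti-Fab antibody (1:10000) and TMB substrate. Binding curves generated from the read-out.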
Background: An ELISA detects its analyte on a solid surface through an enzyme-linked reagent.

The target in the next test is Peptide-5 (human, phosphoserine 210, phosphoserine 214, phosphothreonine 217 (tau 2N4R numbering); SCBiot and dPEG4 at the N-terminus; amide at the C-terminus). As to the kind of experiment: SPR ProteOn, peptide captured, Fab as analyte; range of n=2; Peptide-5 (pS210/pS214/pT217); upper end of n=2 range. The method, then: as §1, §2, §3
For test [4], the target named is T4, Peptide-2 (human, phosphothreonine 212, phosphothreonine 217 (tau 2N4R numbering); short chain biotin (SCBiot) and dPEG4 at the N-terminus; amide at the C-terminus).
T4 construct: also called pT212/pT217-tau peptide (Peptide-2)
As to the kind of experiment: SPR ProteOn, peptide captured, Fab as analyte; range of n=2. As for the experimental part: (§5) A subset of HFA-PT3 monoclonal antibody variants, selected based on biophysical characterization and ELISA binding to PHF, were analyzed by Surface Plasmon Resonance (SPR) with a ProteOn XPR36 for binding to the following phosphopeptides: pT212/pT217-tau peptide (Peptide-2, SEQ ID NO: 48) and pT212-tau peptide (Peptide-8, SEQ ID NO: 54). All experiments were performed at 25° C. using PBST, pH 7.4, (Bio-Rad Cat#176-2720) as both running buffer and sample dilution buffer.
(§6) Fab/peptide binding. Biotinylated peptide was captured on a neutravidin-coated NLC biosensor chip pre-conditioned with PBST, and Fab was flowed over the surface to measure kinetic parameters. Approximately 5-10 RU of peptide was captured on the chip surface by diluting peptide to 10 ng/mL in PBST and injecting over the flow channels at 30 μL/min for 100 s. Serial dilutions of PT3 Fab (1.1 nM to 90 nM) were injected at 60 μL/min for 3 minutes (association phase), followed by 300 s of buffer only (dissociation phase).
(§7) Data were double referenced by subtraction of the interspot response, and the curves generated by the buffer only injection. The chip surface was regenerated with 0.85% phosphoric acid, followed by PBST injection before the next antibody titration injection. Data processing and analysis were performed using instrument software. The data were fit using a simple Langmuir 1:1 binding model.

For test [5], the target named is T4, Peptide-2. As to the kind of experiment: SPR ProteOn, peptide captured, Fab as analyte; Peptide-2 (pT212/pT217); separate run of Table 12 (HFA Fab comparison), n=2. As for the experimental part: as §5, §6, §7
The target of the next test is Peptide-4 (human, phosphoserine 210, phosphothreonine 217 (tau 2N4R numbering); SCBiot and dPEG4 at the N-terminus; amide at the C-terminus). As to the kind of experiment: SPR ProteOn, peptide captured, Fab as analyte; Peptide-4, phosphorylated at 210/217. The method, then: as §1, §2, §3
Test [6] has as its target T4, Peptide-2. As to the kind of experiment: SPR ProteOn, peptide captured, Fab as analyte; range of n=2; Peptide-2 (pT212/pT217); Table 12 run; upper end of n=2 range. The method, then:
as §5, §6, §7

The target of the next test is T5, Peptide-8 (human, phosphothreonine 212 (tau 2N4R numbering); SCBiot and dPEG4 at the N-terminus; amide at the C-terminus).
T5 construct: also called pT212-tau peptide (Peptide-8)
As to the kind of experiment: SPR ProteOn, peptide captured, Fab as analyte; n=1. As for the experimental part: as §1, §2, §4

“And” between values parts separate entries of the source, which are not always exact repeats. Identical values can stand only once.

B1: PT3 Fab (B187) (Fab, V domains shown)
VH: EVKLVESGGDLVKPGGSLKLSCAASGFTFSSYAMSWVRQNPEKRLEWVASISKGGNTYYPNSVKGRFTISRDNARNILYLQMSSLRSEDTALYYCARGWGDYGWFAYWGQVTLVTVSA
VL: DIKMTQSPSSMYASLGERVTITCKASQDINRYLNWFQQKPGKSPKTLIYRANRLLDGVPSRFSGSGSGQDYSLTISSLDYEDMGIYYCLQYDEFPLTFGDGTKLELK
notes: Chimeric Fab: mouse variable regions, human IgG1/kappa constant region, 6xHis tag at the C-terminus of the heavy chain; also called mouse parental Fab of PT3
Usually Kd stands for the concentration at which binding is half-saturated. A low value points to tighter binding. What is called koff is the rate constant with which the complex falls apart. Read a high koff as fast dissociation. Broadly, the kon is the second-order rate constant of association. Usually EC50 stands for the concentration that produces a half-maximal response. Read a low EC50 as higher potency in that assay. As for B1, the Kd in the test with Peptide-1 is 0.26 nM; with Peptide-7 [1], 13.5 nM; with Peptide-5, 6.6 to 10.8 nM; with Peptide-2 [5], 0.0874 nM; with Peptide-4, 6.6 nM; in the test with Peptide-2 [6], 0.0738 to 0.101 nM. In the test with Peptide-8, binding was put at a Kd of 23 nM. The koff with Peptide-7 [2] was 0.00549 s⁻¹; in the test with Peptide-2 [4], 4.93e-05 s⁻¹ and 7.84e-05 s⁻¹; with Peptide-8 it was 0.00646 s⁻¹. Besides, the kon with Peptide-7 [2] is 357000 M⁻¹ s⁻¹; with Peptide-2 [4] it was 491000 M⁻¹ s⁻¹ and 1.06e+06 M⁻¹ s⁻¹; with Peptide-8, 281000 M⁻¹ s⁻¹. The molecule further showed an EC50 in test [3] of 0.11 nM.

These data come from patent US20230047413A1 (Janssen / Centocor, published 2023).
